Where a chain is given by its changes, count along the chain named. One block for each molecule: values may come before it.
Columns and labels:
[1] = molecular target: GPR56 (Mus musculus) (UniProt Q8K209); conditions: cited from earlier work
[2] = molecular target: T1, C277S-TG2 (catalytically deficient TG2 C277S mutant) (human, UniProt P21980 1-687, C277S); assay: SPR; BIAcore T200, protein A sensor chip; 270-320 RU of 1-382 N-GPR56-Fc fusion protein, or conditioned medium containing it (1:10 in HBS), captured; C277S-TG2 (DTT treated) as analyte, 8 serial dilutions; 25 °C, HBS (10 mM Hepes pH 7.4, 0.15 M NaCl, 3 mM EDTA, 0.005% P20), 30 µL/min; with 20 mM Ca2+; equilibrium analysis; conditions: both partners purified
T1 construct: transglutaminase 2 with C277S; the results call the analyte of the kinetic studies human TG2; Incubated with 10 mM DTT for 10 min and re-buffered into HBS before SPR; source: E. coli BL21(DE3pLysS), purified to homogeneity
T1 sequence (looked up): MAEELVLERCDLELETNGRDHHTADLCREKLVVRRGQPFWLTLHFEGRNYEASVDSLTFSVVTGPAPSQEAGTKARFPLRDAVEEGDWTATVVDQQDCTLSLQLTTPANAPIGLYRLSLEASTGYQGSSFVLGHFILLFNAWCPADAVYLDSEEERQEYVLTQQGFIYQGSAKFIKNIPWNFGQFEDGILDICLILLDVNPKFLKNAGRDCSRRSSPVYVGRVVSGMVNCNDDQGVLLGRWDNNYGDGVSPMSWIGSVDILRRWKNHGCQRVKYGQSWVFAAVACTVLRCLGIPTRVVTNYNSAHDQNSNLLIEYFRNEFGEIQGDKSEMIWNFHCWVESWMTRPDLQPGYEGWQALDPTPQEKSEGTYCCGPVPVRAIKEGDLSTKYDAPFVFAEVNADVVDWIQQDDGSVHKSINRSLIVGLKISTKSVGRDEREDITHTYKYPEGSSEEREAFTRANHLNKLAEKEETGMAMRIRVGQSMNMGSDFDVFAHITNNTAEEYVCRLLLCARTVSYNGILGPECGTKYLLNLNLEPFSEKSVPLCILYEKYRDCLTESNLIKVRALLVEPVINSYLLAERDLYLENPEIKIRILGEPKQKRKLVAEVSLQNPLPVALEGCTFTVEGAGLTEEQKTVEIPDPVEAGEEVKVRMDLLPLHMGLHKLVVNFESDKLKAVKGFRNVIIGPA

[3] = molecular target: T2, wild type murine TG2 (murine, UniProt P21981 1-686); assay: pull-down; N-GPR56-Fc fusion proteins from CHO conditioned medium held on protein G-Sepharose beads, washed (20 mM Tris/HCl, pH 7.4, 150 mM NaCl), incubated with TG2 (50 µg/mL) in 50 µL overnight at 4 °C; eluted with 0.1 M glycine/HCl pH 2.5; Western blot; conditions: both partners purified
T2 construct: transglutaminase 2, mouse, wild type; construct not described
T2 sequence (looked up): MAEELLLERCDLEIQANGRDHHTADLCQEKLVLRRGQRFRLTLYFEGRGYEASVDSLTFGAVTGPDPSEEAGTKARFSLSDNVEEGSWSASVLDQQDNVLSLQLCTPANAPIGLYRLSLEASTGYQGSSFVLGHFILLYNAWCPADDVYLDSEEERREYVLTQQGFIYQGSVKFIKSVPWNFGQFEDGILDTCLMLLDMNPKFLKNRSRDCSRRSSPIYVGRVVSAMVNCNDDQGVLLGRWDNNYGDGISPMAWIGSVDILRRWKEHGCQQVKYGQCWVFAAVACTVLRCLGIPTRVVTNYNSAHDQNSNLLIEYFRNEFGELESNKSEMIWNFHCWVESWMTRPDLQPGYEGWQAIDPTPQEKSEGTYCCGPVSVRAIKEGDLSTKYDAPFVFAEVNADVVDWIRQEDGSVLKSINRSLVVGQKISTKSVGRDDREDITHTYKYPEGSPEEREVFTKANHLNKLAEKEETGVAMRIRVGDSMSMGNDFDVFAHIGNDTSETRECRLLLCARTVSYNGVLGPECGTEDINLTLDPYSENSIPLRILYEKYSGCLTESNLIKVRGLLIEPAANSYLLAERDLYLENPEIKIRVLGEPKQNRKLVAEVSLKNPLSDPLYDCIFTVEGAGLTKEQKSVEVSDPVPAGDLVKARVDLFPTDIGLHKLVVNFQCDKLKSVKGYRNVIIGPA

[4] = molecular target: T3, human C230-A TG2 mutant (oxidation resistant mutant of TG2) (human, UniProt P21980 1-687, C230A); assay: as above; conditions: both partners purified
T3 construct: transglutaminase 2, human, with C230A; source: E. coli BL21(DE3pLysS), purified to homogeneity
T3 sequence (looked up): T1 sequence (looked up) with C230A, S277C

[5] = molecular target: T4, human recombinant transglutaminase 2 (TG2), wild type (human, UniProt P21980 1-687); assay: as above; conditions: both partners purified
T4 construct: transglutaminase 2, human; also called native TG2; wild type TG2; source: E. coli BL21(DE3pLysS), purified to homogeneity
T4 sequence (looked up): T1 sequence (looked up) with S277C

GPR56 (Mus musculus), sequence (Q8K209 26-382): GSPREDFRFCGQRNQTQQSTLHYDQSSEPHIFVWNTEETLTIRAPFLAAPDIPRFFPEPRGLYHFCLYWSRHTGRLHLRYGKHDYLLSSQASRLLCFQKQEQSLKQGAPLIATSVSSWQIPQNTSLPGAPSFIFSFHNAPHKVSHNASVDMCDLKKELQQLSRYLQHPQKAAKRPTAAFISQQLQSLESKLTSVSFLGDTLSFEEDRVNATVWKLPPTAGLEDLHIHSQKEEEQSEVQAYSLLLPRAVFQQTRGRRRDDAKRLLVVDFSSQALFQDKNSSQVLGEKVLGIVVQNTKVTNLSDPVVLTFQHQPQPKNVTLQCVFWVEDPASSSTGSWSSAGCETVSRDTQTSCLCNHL

Molecule: TG2 (from UniProt P21981)
Kd [1]: 330 nM

Kd [2]: ~1200 nM
binding result [3]: binds
binding result [4]: binds
binding result [5]: binds
B1: 1-382 N-GPR56-Fc fusion protein (Fc fusion, human, UniProt Q9Y653 26-382, looked up)
chain: RGHREDFRFCSQRNQTHRSSLHYKPTPDLRISIENSEEALTVHAPFPAAHPASRSFPDPRGLYHFCLYWNRHAGRLHLLYGKRDFLLSDKASSLLCFQHQEESLAQGPPLLATSVTSWWSPQNISLPSAASFTFSFHSPPHTAAHNASVDMCELKRDLQLLSQFLKHPQKASRRPSAAPASQQLQSLESKLTSVRFMGDMVSFEEDRINATVWKLQPTAGLQDLHIHSRQEEEQSEIMEYSVLLPRTLFQRTKGRSGEAEKRLLLVDFSSQALFQDKNSSQVLGEKVLGIVVQNTKVANLTEPVVLTFQHQLQPKNVTLQCVFWVEDPTLSSPGHWSSAGCETVRRETQTSCFCNHL
notes: signal peptide in the construct; Fc retains the cysteine residues for dimerization; The limits 1-382 are printed for the SPR; also called human N-GPR56; source: CHO cells, transfected; conditioned medium, purified on protein G-Sepharose, or conditioned medium used directly; not shown: Fc (human IgG1 heavy chain, amino acids 3-236), C-terminal, kept

From publication PMC10889368, “Mesenchymal Transglutaminase 2 Activates Epithelial ADAM17: Link to G-Protein-Coupled Receptor 56 (ADGRG1) Signalling” (International Journal of Molecular Sciences, 2024)
